Measurements: patent publication US20150005474A1

Tests used:
[1] = biological target: TR5, non-glycosylated MUC1 peptide […]n with n=5; assay: ELISA, 10 µg/ml antibody; reference is TR1 (SEQ ID NO: 72)
[2] = biological target: glycosylated 30mer MUC1 peptide; assay: ELISA, 10 µg/ml antibody; reference is the non-glycosylated 30mer
[3] = biological target: glycosylated 30mer MUC1 peptide; assay: ELISA of Example 5.1; reference is the non-glycosylated 30mer

Sequence of glycosylated 30mer MUC1 peptide (peptide, as listed by the source): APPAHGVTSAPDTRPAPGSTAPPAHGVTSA
Sequence of TR5, non-glycosylated MUC1 peptide […]n with n=5 (peptide, as listed by the source): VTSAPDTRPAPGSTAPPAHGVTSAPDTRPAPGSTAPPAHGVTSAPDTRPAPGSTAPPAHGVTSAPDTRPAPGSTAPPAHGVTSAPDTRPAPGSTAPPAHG

Row | factor (ratio of the signal with TR5 peptide to that with TR1 peptide) [1] | factor (ratio of glycosylated/non-glycosylated peptide) [2] | factor (glycosylated against non-glycosylated peptide) [3] | Substance
1 | 1.1 | < 1.2 | – | C595 (antibody)
2 | 2.1 | < 1.2 | 1.5 | SM3 (antibody)
3 | – | < 1.2 | – | HMFG-1 (antibody)
